A short description of series [1]: Temperature range of enzyme activity. The format is biochemical. The settings on record: 30° C.-80° C. investigated. The protocol: The temperature range was investigated from 30° C.-80° C. by incubating the enzymes and measuring their activity at the respective temperature.
Series [2] in a line: SSF of maltodextrins with added isomaltose, 24 h (Example 1). On the set-up: species or system Yeast (Deltaferm® AL-18). The settings on record: SSF 24 h, maltodextrin + 20 g/L isomaltose, enzyme 187.5 kU per ton. The protocol:
Quantification of ethanol yield Ethanol was quantified via HPLC. Samples were taken at the end of the SSF or during SSF at set time points. Samples were centrifuged for 1 min at 17,000 xg and sterile filtered (0.2 μm). The samples were frozen at −80° C. prior to measurements. Ethanol was determined with an Aminex 87C column (Bio-Rad Laboratories, Inc., US) on a Shimadzu HPLC system.
For simultaneous saccharification and fermentation (abbreviated SSF), the oligo-1,6-glucosidases—either Agl1 or Gth—were used as crude Bacillus extract. Glucidex® Maltodextrin 12 (Roquette, FR) was dissolved in SSF-medium (5 g/L yeast extract, 5 g/L peptone, 1 g/L K2HIPO4, 0.5 g/L Mg2SO4 in 50 mM citrate buffer, pH 4.8) at 300 g/L. Panose, isomaltose, isomaltotriose, maltose, maltotriose, or trehalose was added at 20 g/L. As a positive control, 20 g/L glucose was added instead of the respective sugar. The SSF medium containing starch hydrolysate (maltodextrins) and sugars was sterile filtered (0.2 μm). Yeast (Deltaferm® AL-18, WeissBioTech GmbH, Ascheberg, Germany) was grown in YINaC medium (50 g/L dextrose, 5 g/L yeast extract, 5 g/L peptone, 1 g/L K2HPO4, 0.5 g/L Mg2SO4*7H2O, 2 g/L NH4Cl in 50 mM sodium citrate, pH 4.8) for 2 days at 37° C. and harvested by centrifugation for 15 min at 5100 rpm and 8° C. […]

Series [3] is classed as biochemical. As to conditions: pH 5. The protocol:
For activity measurements, the enzyme Agl1 was incubated with 10 mM and 50 mM panose, isomaltose, isomaltotriose, maltose, maltotriose, and trehalose for 10 min at 37° C. in Britton-Robertson buffer, pH 5. The enzyme Gth was incubated with 15 mM panose, 10 and 50 mM isomaltose, and 10, 50 and 100 mM maltotriose and trehalose for 10 min at 37° C. in Britton-Robertson buffer, pH 5. The reaction was stopped with 60 μL of 1 M NaOH, followed by addition of 60 μL of 1 M HCL. The amount of produced glucose was quantified using a standardized glucose assay kit (D-Glucose HK Assay Kit, Megazyme u.c. IRE). Glucose concentration was determined as specified in the instructions. Units are defined as the amount of enzyme required to produce one μmol of glucose per minute.

The results in this text go back to patent US20230002798A1, “PROCESS FOR THE PREPARATION OF A FERMENTABLE SUGAR COMPOSITION AND THE FERMENTATION THEREOF” (WeissBioTech GmbH, priority 2019, published 2023).

B1: Gth: oligo-1,6-glucosidase of Parageobacillus thermoglucosidasius, amino acid sequence SEQ ID NO:2, expressed in Bacillus subtilis (protein, listed as Parageobacillus thermoglucosidasius)
chain: MERVWWKEAVVYQIYPRSFYDSNGDGIGDIRGIIAKLDYLKELGVDVVWLSPVYKSPNDDNGYDISDYRDIMDEFGTMADWKTMLEEMHKRGIKLVMDLVVNHTSDEHPWFIESRKSKDNPYRDYYIWRPGKNGKEPNNWESVFSGSAWEYDEMTGEYYLHLFSKKQPDLNWENPKVRREVYEMMKFWLDKGVDGFRMDVINMISKVPELPDGEPQSGKKYASGSRYYMNGPRVHEFLQEMNREVLSKYDIMTVGETPGVTPKEGILYTDPSRRELNMVFQFEHMDLDSGPGGKWDIRPWSLADLKKTMTKWQKELEGKGWNSLYLNNHDQPRAVSRFGDDGKYRVESAKMLATFLHMMQGTPYIYQGEEIGMTNVRFPSIEDYRDIETLNMYKERVEEYGEDPQEVMEKIYYKGRDNARTPMQWDDSENAGFTAGTPWIPVNPNYKEINVKAALEDPNSVFHYYKKLIQLRKQHDIIVYGTYDLILEDDPYIYAYTRTLGNEQLIVITNFSEKTPVFRLPDHIIYKTKELLISNYDVDEAEELKEIRLRPWEARVYKIRLP
modifications: WP_042386239.1 alpha-glucosidase
As for B1, the temperature range in series [1] is 30-70 °C.

B2: Agl1: oligo-1,6-glucosidase of Bifidobacterium breve UCC2003, amino acid sequence SEQ ID NO:1, expressed in Bacillus subtilis (protein)
chain: MMTTFNRAIIPDAIRTNGATPNPWWSNAVVYQIYPRSFQDTNGDGFGDLKGITSRLDYLADLGVDVLWLSPVYKSPQDDNGYDISDYQDIDPLFGTLDDMDELLAEAHKRGLKVVMDLVVNHTSDEHAWFEASKNKDDEHADWYWWRPARPGTTPGEPGSEPNQWGSYFGGSAWEYCPERGEYYLHQFSKKQPDLNWENPAVRRAVYDMMNWWLDRGIDGFRMDVITLISKRTDANGRLPGEYGSELDDLPVGEEGYSNPNPFCADGPRQDEFLKEMRREVFAGREGFLTVGEAPGITPVRNEHITNPANGELDMLFLFDHVDFDCDGVKWKPLPLDLPGFKRIMAGYQTAVENVGWASLFTGNHDQPRVVSRWGDDSSEESRVRSAKALGLMLHMHRGTPYVYQGEELGMTNAHFTSLDQYRDLESLNAYRQRVEEAKVQSPESMLAGIAARGRDNSRTPMQWDGSAYAGFTAPDAATEPWISVNPNHAEINAAGEFDDPDSVYAFYKKLIALRHNSSIVAAGEWQLIDADDAHVYAFTRTLGNERLLVVVNLSGRTVDLPRESTELIAGGVTEPDIILSTYDAPHTVVSLANRELDPWEAAAVQL
modifications: Bifidobacterium breve UCC2003; ACM89182.1 alpha-glucosidase 1
Take B2: in series [2], the “ethanol concentration increase by % compared to the negative control” value worked out at 74% and the “ethanol concentration increase compared to the negative control” value is listed as 0.98 percentage points (v/v). The “substrate degradation (activity on trehalose)” value in series [3] is recorded as “breaks down trehalose”. In addition, in series [1], the temperature range was 30-50 °C.
